Source: article PMC2707180 (Nature structural & molecular biology, 2008)
Where a chain is given by its changes, count along the chain named. Names may count otherwise.

B1: GST-tagged C-terminal fragment of Prp8 (1806-2413 aa) (domain or fragment)
chain: MKANPALYVLRERIRKGLQIYQSSVQEPFLNSSNYAELFNNDIKLFVDDTNVYRVTVHKTFEGNVATKAINGCIFTLNPKTGHLFLKIIHTSVWAGQKRLSQLAKWKTAEEVSALVRSLPKEEQPKQIIVTRKAMLDPLEVHMLDFPNIAIRPTELRLPFSAAMSIDKLSDVVMKATEPQMVLFNIYDDWLDRISSYTAFSRLTLLLRALKTNEESAKMILLSDPTITIKSYHLWPSFTDEQWITIESQMRDLILTEYGRKYNVNISALTQTEIKDIILGQNIKAPSVKRQKMAELEAARSEKQNDEEAAGASTVMKTKTINAQGEEIVVVASADYESQTFSSKNEWRKSAIANTLLYLRLKNIYVSADDFVEEQNVYVLPKNLLKKFIEISDVKIQVAAFIYGMSAKDHPKVKEIKTVVLVPQLGHVGSVQISNIPDIGDLPDTEGLELLGWIHTQTEELKFMAASEVATHSKLFADKKRDCIDISIFSTPGSVSLSAYNLTDEGYQWGEENKDIMNVLSEGFEPTFSTHAQLLLSDRITGNFIIPSGNVWNYTFMGTAFNQEGDYNFKYGIPLEFYNEMHRPVHFLQFSELAGDEELEAEQIDVFS
B2: GST-tagged Prp8-CTF with the RP mutation R2388K (domain or fragment)
chain: B1 chain with R583K
B3: GST-tagged Prp8-CTF with the RP mutation F2382L (domain or fragment)
chain: B1 chain with F577L

biological target: full-length Brr2 with C-terminal calmodulin-binding domain (S. cerevisiae, UniProt P32639 1-2163); assay: pull-down
Sequence (P32639 whole entry, the tested form may be a part): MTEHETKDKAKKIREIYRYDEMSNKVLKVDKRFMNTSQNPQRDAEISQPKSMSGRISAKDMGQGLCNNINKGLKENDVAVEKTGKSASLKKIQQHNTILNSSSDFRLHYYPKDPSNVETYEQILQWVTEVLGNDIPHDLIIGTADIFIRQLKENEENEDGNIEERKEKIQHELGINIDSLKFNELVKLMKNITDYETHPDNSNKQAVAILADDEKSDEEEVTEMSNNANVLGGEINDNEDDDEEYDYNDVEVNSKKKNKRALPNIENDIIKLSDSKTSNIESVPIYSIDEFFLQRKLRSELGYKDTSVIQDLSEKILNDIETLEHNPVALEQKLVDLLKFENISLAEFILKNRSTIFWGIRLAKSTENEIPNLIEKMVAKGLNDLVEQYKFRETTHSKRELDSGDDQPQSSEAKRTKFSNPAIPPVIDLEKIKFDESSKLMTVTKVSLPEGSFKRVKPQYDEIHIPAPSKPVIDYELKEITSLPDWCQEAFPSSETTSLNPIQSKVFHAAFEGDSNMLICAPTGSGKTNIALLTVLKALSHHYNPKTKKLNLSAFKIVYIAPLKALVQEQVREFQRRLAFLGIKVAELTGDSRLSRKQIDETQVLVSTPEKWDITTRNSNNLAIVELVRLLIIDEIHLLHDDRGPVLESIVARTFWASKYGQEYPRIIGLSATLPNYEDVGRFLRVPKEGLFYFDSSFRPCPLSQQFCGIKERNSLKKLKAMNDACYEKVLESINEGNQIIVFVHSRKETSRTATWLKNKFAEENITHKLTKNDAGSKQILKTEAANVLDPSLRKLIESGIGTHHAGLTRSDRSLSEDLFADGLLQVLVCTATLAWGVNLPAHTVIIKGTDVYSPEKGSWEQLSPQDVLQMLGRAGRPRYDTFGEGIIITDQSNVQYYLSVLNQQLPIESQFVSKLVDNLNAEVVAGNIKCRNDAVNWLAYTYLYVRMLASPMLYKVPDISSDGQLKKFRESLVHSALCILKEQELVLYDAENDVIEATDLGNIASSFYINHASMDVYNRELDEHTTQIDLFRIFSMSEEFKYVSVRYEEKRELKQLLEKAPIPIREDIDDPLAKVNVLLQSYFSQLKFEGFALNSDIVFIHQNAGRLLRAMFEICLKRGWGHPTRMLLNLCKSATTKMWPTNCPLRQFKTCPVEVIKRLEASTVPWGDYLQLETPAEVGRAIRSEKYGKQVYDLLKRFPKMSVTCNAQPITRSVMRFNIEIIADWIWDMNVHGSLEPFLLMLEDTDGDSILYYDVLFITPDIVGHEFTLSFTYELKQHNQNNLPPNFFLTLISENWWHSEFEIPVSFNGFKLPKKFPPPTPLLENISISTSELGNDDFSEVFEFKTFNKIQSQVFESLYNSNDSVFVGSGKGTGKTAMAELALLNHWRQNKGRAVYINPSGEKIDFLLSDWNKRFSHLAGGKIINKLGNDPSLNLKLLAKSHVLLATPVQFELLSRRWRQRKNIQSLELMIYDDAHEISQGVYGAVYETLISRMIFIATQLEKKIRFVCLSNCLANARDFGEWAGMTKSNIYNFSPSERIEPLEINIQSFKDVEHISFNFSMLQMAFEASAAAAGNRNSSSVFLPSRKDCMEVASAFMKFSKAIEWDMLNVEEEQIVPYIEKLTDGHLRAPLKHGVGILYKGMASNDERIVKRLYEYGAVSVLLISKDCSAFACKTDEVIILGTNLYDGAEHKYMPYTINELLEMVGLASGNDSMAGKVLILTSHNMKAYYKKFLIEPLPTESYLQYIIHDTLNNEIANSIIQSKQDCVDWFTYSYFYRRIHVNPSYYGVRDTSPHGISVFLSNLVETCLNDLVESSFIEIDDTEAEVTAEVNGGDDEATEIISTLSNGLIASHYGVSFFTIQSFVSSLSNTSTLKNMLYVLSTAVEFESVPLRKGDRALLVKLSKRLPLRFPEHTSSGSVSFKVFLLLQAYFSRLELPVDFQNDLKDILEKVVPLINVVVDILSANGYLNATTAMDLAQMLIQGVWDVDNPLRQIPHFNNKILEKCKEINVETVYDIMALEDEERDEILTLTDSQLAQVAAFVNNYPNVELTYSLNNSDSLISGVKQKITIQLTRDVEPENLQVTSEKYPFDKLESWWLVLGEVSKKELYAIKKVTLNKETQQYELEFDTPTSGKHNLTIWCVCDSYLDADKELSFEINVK

| binding result | Binder |
| --- | --- |
| binds | B1 |
| binds | B2 |
| binds | B3 |
